The text below walks through data of article PMC11575642 (Chemical Science, 2024).

The test addresses Glutathione peroxidase 4 (GPX4), endogenous in OS-RC-2 cells (Homo sapiens, OS-RC-2 cells, UniProt P36969). In words: pull-down.

B1: 4C-R10 (nanobody 4C fused at its C-terminus through an SGSGSG linker to the arginine-rich R10 cell-penetrating peptide) (VHH)
VHH: EVQLEESGGGSVQAGGSLRLSCAAPGDTSSRYYMGWFRQAPGKEREGVAGFSTGLGRTTYADSVKGRFTISQDNAKNTIYLQMNSLKVEDTAMYYCATGRAWAAGSPMYGPFDSRRYNYWGQGTQVTVSS
For B1, the binding result is given as “binds”.
